Our source for the fold less toxin needed for saturation than in the Cry2Ab assay, Kd and Rt (binding site concentration) (pmol/mg BBMV protein) values is patent US20110088129A1.

Assay [1] has as its target binding sites in brush border membrane vesicles (BBMV) from midguts of last instar Helicoverpa armigera larvae (Helicoverpa armigera). The experiment in a line: direct saturation assay, labeled Cry1Ac on BBMV at the same concentration as for Cry2Ab.
Assay [2] concerns the target binding sites in brush border membrane vesicles (BBMV) from midguts of last instar Helicoverpa zea larvae (Helicoverpa zea). The experiment in a line: homologous competition, 125I-Cry1Ac on H. zea BBMV, LIGAND program.
The target of assay [3] is binding sites in brush border membrane vesicles (BBMV) from midguts of last instar Helicoverpa armigera larvae (Helicoverpa armigera). The experiment in a line: homologous competition, 125I-Cry1Ac on H. armigera BBMV, LIGAND program.

Broadly, the Kd is the equilibrium constant for the complex coming apart. Higher therefore signals weaker binding. In assay [1], “Cry1Ac activated toxin (trypsin-activated Cry1Ac protoxin from B. thuringiensis strain HD73) (from UniProt P05068 29-623) (ligand)” registered a fold less toxin needed for saturation than in the Cry2Ab assay of 4 fold. Further, in assay [2], the dissociation constant (Kd) was found to be 0.17 nM and the Rt (binding site concentration) (pmol/mg BBMV protein) worked out at 10. In assay [3], this substance gave an equilibrium dissociation constant (Kd) of 0.08 nM and a Rt (binding site concentration) (pmol/mg BBMV protein) of 0.96.
